The labels stand for the following.
B1: Poly(rC)-binding protein 1, residues 278 to 350; numbered along this chain, Q15365 (parent)
chain: TQTTHELTIPNNLIGCIIGRQGANINEIRQMSGAQIKIANPVEGSSGRQVTITGSAASISLAQYLINARLSSE

± gives the uncertainty stated by the source.

In the data set the parent is B1. Kind of data set: abundance fitness (aPCA) (normalised: wild type 0, dead -1); higher = more abundant; growth selection in yeast, the domain comes from the species named. The conditions noted are these: Homo sapiens.
In the case of G33L, the abundance fitness is -0.61 ± 0.081.

G33R: the abundance fitness is -0.324 ± 0.045.

In the case of G33C, the abundance fitness is -0.652 ± 0.13.

Turning to G33E, the abundance fitness was -0.541 ± 0.078.

With G33N, the abundance fitness was -0.439 ± 0.13.

As to G33A, the abundance fitness is -0.405 ± 0.056.

In the case of G33K, the abundance fitness is -0.362 ± 0.066.

As to K37N, the abundance fitness turned out to be 0.032 ± 0.086.

K37T: the abundance fitness came to 0.051 ± 0.064.

For K37V, the abundance fitness was -0.032 ± 0.032.

Consider K37Y, for which the abundance fitness was 0.007 ± 0.1.

On to K37Q, for which the abundance fitness was 0.083 ± 0.064.

For K37D, the abundance fitness was -0.034 ± 0.076.

K37G: the abundance fitness was -0.255 ± 0.04.

Consider K37M, for which the abundance fitness was -0.065 ± 0.045.

Take K37E: the abundance fitness was found to be 0.01 ± 0.051.

Regarding K37H, the abundance fitness is -0.272 ± 0.15.

With K37W, the abundance fitness is -0.215 ± 0.051.

Consider K37P, for which the abundance fitness was -0.718 ± 0.17.

For the variant K37C, the abundance fitness is -0.4 ± 0.17.

On to K37A, for which the abundance fitness was -0.109 ± 0.049.

In the case of K37F, the abundance fitness is -0.41 ± 0.22.

With K37S, the abundance fitness is -0.11 ± 0.066.

As for K37I, the abundance fitness amounted to 0.124 ± 0.097.

In the case of K37L, the abundance fitness is -0.142 ± 0.036.

For S32P, the abundance fitness was -0.91 ± 0.26.

S32V: the abundance fitness is -0.858 ± 0.086.

As to S32G, the abundance fitness was -0.793 ± 0.054.

Take S32I: the abundance fitness is -0.882 ± 0.25.

For S32R, the abundance fitness was -0.85 ± 0.07.

As for S32W, the abundance fitness is -1.14 ± 0.23.

As for S32L, the abundance fitness is -0.703 ± 0.12.

As for S32F, the abundance fitness was -1 ± 0.47.

Consider S32T, for which the abundance fitness was -0.16 ± 0.048.

For the variant S32Q, the abundance fitness is -0.334 ± 0.14.

For the variant S32K, the abundance fitness was -0.8 ± 0.11.

On to S32M, for which the abundance fitness was -0.703 ± 0.087.

In the case of G47E, the abundance fitness was 0.067 ± 0.039.

Turning to G47I, the abundance fitness was -0.379 ± 0.18.

Consider G47Q, for which the abundance fitness came out at 0.054 ± 0.056.

For the variant G47N, the abundance fitness amounted to 0.047 ± 0.099.

As for G47C, the abundance fitness is -0.097 ± 0.062.

In the case of G47F, the abundance fitness is -0.116 ± 0.096.

As to G47K, the abundance fitness was -0.01 ± 0.052.

Regarding G47H, the abundance fitness is -0.129 ± 0.094.

Take G47V: the abundance fitness amounted to 0.017 ± 0.029.

For the variant G47A, the abundance fitness stood at 0.013 ± 0.036.

Turning to G47R, the abundance fitness is -0.062 ± 0.035.

As to G47S, the abundance fitness came out at 0.023 ± 0.043.

Take G47Y: the abundance fitness was -0.008 ± 0.085.

Turning to G47L, the abundance fitness is 0 ± 0.03.

G47M: the abundance fitness was 0.043 ± 0.041.

As to G47D, the abundance fitness turned out to be 0.032 ± 0.062.

For G47T, the abundance fitness was 0.008 ± 0.052.

G47W: the abundance fitness was -0.073 ± 0.047.

As to G47P, the abundance fitness was -0.491 ± 0.075.

For R48K, the abundance fitness is -0.451 ± 0.066.

Regarding R48P, the abundance fitness was -0.714 ± 0.11.

Turning to R48A, the abundance fitness was -0.113 ± 0.04.

Consider R48N, for which the abundance fitness is -0.368 ± 0.1.

Regarding R48Q, the abundance fitness is -0.257 ± 0.058.

With R48M, the abundance fitness was -0.217 ± 0.054.

Regarding R48Y, the abundance fitness turned out to be 0.045 ± 0.064.

Take R48G: the abundance fitness is -0.597 ± 0.043.

On to R48E, for which the abundance fitness is -0.752 ± 0.088.

For the variant R48I, the abundance fitness is -0.205 ± 0.08.

As to R48L, the abundance fitness is -0.328 ± 0.046.

Regarding R48W, the abundance fitness was -0.184 ± 0.044.

As to R48D, the abundance fitness is -0.626 ± 0.12.

As for R48V, the abundance fitness is -0.093 ± 0.034.

On to R48H, for which the abundance fitness is -0.118 ± 0.085.

Turning to R48C, the abundance fitness was -0.114 ± 0.05.

On to R48T, for which the abundance fitness was -0.158 ± 0.049.

For Q49A, the abundance fitness was found to be 0.006 ± 0.043.

In the case of Q49D, the abundance fitness was -0.263 ± 0.069.

Regarding Q49N, the abundance fitness was -0.054 ± 0.058.

For Q49S, the abundance fitness turned out to be 0.008 ± 0.04.

Take Q49F: the abundance fitness is -0.533 ± 0.16.

Turning to Q49H, the abundance fitness is -0.073 ± 0.069.

For Q49M, the abundance fitness was -0.081 ± 0.045.

For the variant Q49I, the abundance fitness was -0.033 ± 0.063.

For the variant Q49C, the abundance fitness came out at 0.006 ± 0.051.

On to Q49P, for which the abundance fitness is -0.298 ± 0.064.

For the variant Q49V, the abundance fitness amounted to 0.043 ± 0.034.

For Q49K, the abundance fitness was -0.049 ± 0.063.

Consider Q49E, for which the abundance fitness is -0.204 ± 0.064.

With Q49W, the abundance fitness was -0.613 ± 0.071.

Consider Q49L, for which the abundance fitness was 0.03 ± 0.041.

As for Q49Y, the abundance fitness was -0.543 ± 0.12.

With Q49R, the abundance fitness stood at 0.049 ± 0.029.

As to I36E, the abundance fitness is -0.986 ± 0.18.

As to I36N, the abundance fitness is -0.689 ± 0.29.

For the variant I36Y, the abundance fitness was -0.767 ± 0.43.

For the variant I36K, the abundance fitness is -1.14 ± 0.27.

For the variant I36R, the abundance fitness is -0.835 ± 0.069.

With I36H, the abundance fitness turned out to be 0.062 ± 0.43.

Turning to I36C, the abundance fitness was -0.276 ± 0.2.

As for I36Q, the abundance fitness was -0.829 ± 0.14.

For I36F, the abundance fitness was -0.5 ± 0.21.

Regarding I36G, the abundance fitness was -0.782 ± 0.062.

In the case of I36L, the abundance fitness is -0.406 ± 0.045.

For I36M, the abundance fitness is -0.648 ± 0.078.

Turning to I36P, the abundance fitness was -1.01 ± 0.24.

For I36W, the abundance fitness is -1.04 ± 0.12.

I36A: the abundance fitness was -0.97 ± 0.14.

As for I36D, the abundance fitness was -0.852 ± 0.42.

In the case of P41D, the abundance fitness is -0.092 ± 0.053.

With P41Y, the abundance fitness is -0.021 ± 0.1.

For P41T, the abundance fitness is -0.081 ± 0.058.

As for P41M, the abundance fitness is 0.115 ± 0.057.

Take P41L: the abundance fitness was -0.046 ± 0.047.

In the case of P41Q, the abundance fitness came out at 0.049 ± 0.055.

As for P41I, the abundance fitness was -0.196 ± 0.12.

For P41A, the abundance fitness turned out to be 0.057 ± 0.038.

Consider P41V, for which the abundance fitness was -0.218 ± 0.043.

For P41R, the abundance fitness amounted to 0.018 ± 0.035.

Regarding P41S, the abundance fitness is -0.061 ± 0.046.

As for P41G, the abundance fitness was -0.11 ± 0.033.

For P41E, the abundance fitness is -0.012 ± 0.042.

Regarding P41C, the abundance fitness was -0.09 ± 0.065.

Turning to S45F, the abundance fitness was -0.009 ± 0.094.

As for S45R, the abundance fitness is -0.157 ± 0.07.

For the variant S45C, the abundance fitness was found to be 0.012 ± 0.13.

For S45M, the abundance fitness was determined as 0.005 ± 0.073.

S45T: the abundance fitness was 0.056 ± 0.046.

In the case of S45V, the abundance fitness is -0.012 ± 0.087.

In the case of S45E, the abundance fitness was 0.002 ± 0.1.

As for S45D, the abundance fitness amounted to 0.026 ± 0.15.

Consider S45W, for which the abundance fitness was -0.431 ± 0.15.

For the variant S45K, the abundance fitness worked out at 0.094 ± 0.076.

S45A: the abundance fitness was -0.002 ± 0.062.

As to S45P, the abundance fitness is -0.442 ± 0.091.

As to S45N, the abundance fitness is -0.031 ± 0.067.

As to S45Y, the abundance fitness was -0.044 ± 0.075.

On to S45I, for which the abundance fitness is -0.093 ± 0.076.

S45L: the abundance fitness is -0.011 ± 0.05.

As to S45Q, the abundance fitness was -0.054 ± 0.065.

As for S45H, the abundance fitness was -0.223 ± 0.087.

S45G: the abundance fitness was -0.292 ± 0.12.

For A39C, the abundance fitness was -0.035 ± 0.089.

Turning to A39F, the abundance fitness was -0.46 ± 0.19.

Regarding A39D, the abundance fitness came to 0.032 ± 0.097.

In the case of A39N, the abundance fitness was found to be 0.076 ± 0.15.

For A39S, the abundance fitness is 0.03 ± 0.049.

Regarding A39Q, the abundance fitness is -0.075 ± 0.077.

As to A39L, the abundance fitness was -0.04 ± 0.038.

With A39W, the abundance fitness is -0.071 ± 0.055.

With A39M, the abundance fitness is -0.092 ± 0.05.

As to A39V, the abundance fitness was -0.382 ± 0.046.

Turning to A39P, the abundance fitness is -0.428 ± 0.1.

Regarding A39G, the abundance fitness was found to be 0.061 ± 0.034.

For the variant A39I, the abundance fitness is -0.029 ± 0.12.

As to A39R, the abundance fitness was -0.17 ± 0.039.

With A39K, the abundance fitness was -0.05 ± 0.071.

Take A34W: the abundance fitness was -0.759 ± 0.12.

In the case of A34E, the abundance fitness is -1.24 ± 0.3.

Regarding A34F, the abundance fitness is -0.447 ± 0.35.

Take A34R: the abundance fitness is -0.721 ± 0.085.

A34K: the abundance fitness is -0.943 ± 0.2.

Consider A34G, for which the abundance fitness is -0.597 ± 0.079.

On to A34P, for which the abundance fitness was -0.372 ± 0.15.

Take A34V: the abundance fitness was -0.792 ± 0.15.

In the case of A34L, the abundance fitness is -1.18 ± 0.31.

Take A34Q: the abundance fitness was -0.641 ± 0.12.

With A34C, the abundance fitness was -0.462 ± 0.18.

As for A34S, the abundance fitness is -0.122 ± 0.073.

As for A34T, the abundance fitness came to 0.023 ± 0.071.

Source of the values: the Human Domainome abundance scans (Beltran et al. 2025).
